According to patent US20240010753A1 (EPIMAB BIOTHERAPEUTICS HK, published 2024):
Changes are numbered by the printed parent chain.

B1: D10 x CD3 FIT-Ig (bispecific antibody, human IgG1, kappa, L234A L235A)
chain 1: not shown
chain 2: QVQLKESGPGLVAPSQTLSITCTVSGFSLTSYGVHWVRQPPGKGLEWLGVIWAGGFTNYNSALKSRLSISKDNSKSQVLLKMTSLQTDDTAMYYCARRGSSYSMDYWGQGTSVTVSSASTKGPSVFPLAPSSKSTSGGTAALGCLVKDYFPEPVTVSWNSGALTSGVHTFPAVLQSSGLYSLSSVVTVPSSSLGTQTYICNVNHKPSNTKVDKKVEPKSC
chain 3: not shown
B2: FIT1007-12B-5 (bispecific antibody, human IgG1, kappa, L234A L235A)
chain 1: not shown
chain 2: EVQLVQSGAEVKKPGSSVKVSCKASGYTFSRSWMNWVRQAPGQGLEWIGRIYPGNGDIKYNGNFKGRATITADKSTSTAYMELSSLRSEDTAVYYCAHIYYDFYYALDYWGQGTTVTVSSASTKGPSVFPLAPSSKSTSGGTAALGCLVKDYFPEPVTVSWNSGALTSGVHTFPAVLQSSGLYSLSSVVTVPSSSLGTQTYICNVNHKPSNTKVDKKVEPKSC
chain 3: not shown
notes: ROR1xCD3 FIT-Ig, same build as FIT1007-12B-1, no linkers
B3: FIT1007-12B-4 (bispecific antibody, human IgG1, kappa, L234A L235A)
chain 1: not shown
chain 2: B2 chain 2 with I48M, A68V
chain 3: not shown
notes: as for B2
B4: FIT1007-12B-6 (bispecific antibody, human IgG1, kappa, L234A L235A)
chain 1: not shown
chain 2: B2 chain 2 with R38K, R67K
chain 3: not shown
notes: as for B2
B5: FIT1007-12B-12 (bispecific antibody, human IgG1, kappa, L234A L235A)
chain 1: not shown
chain 2: B2 chain 2 with R38K, R67K
chain 3: not shown
notes: as for B2
B6: FIT1007-12B-7 (bispecific antibody, human IgG1, kappa, L234A L235A)
chain 1: not shown
chain 2: B2 chain 2 with I48M, A68V
chain 3: not shown
notes: as for B2
B7: FIT1007-12B-2 (bispecific antibody, human IgG1, kappa, L234A L235A)
chain 1: not shown
chain 2: B2 chain 2
chain 3: not shown
notes: as for B2
B8: FIT1007-12B-1 (bispecific antibody, human IgG1, kappa, L234A L235A)
chain 1: not shown
chain 2: B2 chain 2 with I48M, A68V
chain 3: not shown
notes: ROR1xCD3 FIT-Ig, chain #1 VL(ROR1)-CL-VH(CD3)-CH1-hinge-CH2-CH3, chain #2 VH(ROR1)-CH1, chain #3 VL(CD3)-CL, no linkers
B9: FIT1007-12B-9 (bispecific antibody, human IgG1, kappa, L234A L235A)
chain 1: not shown
chain 2: B2 chain 2 with R38K, R67K
chain 3: not shown
notes: as for B2
B10: FIT1007-12B-10 (bispecific antibody, human IgG1, kappa, L234A L235A)
chain 1: not shown
chain 2: B2 chain 2 with I48M, A68V
chain 3: not shown
notes: as for B2
B11: FIT1007-12B-8 (bispecific antibody, human IgG1, kappa, L234A L235A)
chain 1: not shown
chain 2: B2 chain 2
chain 3: not shown
notes: as for B2
B12: FIT1007-12B-11 (bispecific antibody, human IgG1, kappa, L234A L235A)
chain 1: not shown
chain 2: B2 chain 2
chain 3: not shown
notes: as for B2
B13: FIT1007-12B-3 (bispecific antibody, human IgG1, kappa, L234A L235A)
chain 1: not shown
chain 2: B2 chain 2 with R38K, R67K
chain 3: not shown
notes: as for B2
B14: FIT1007-12B-13 (bispecific antibody, human IgG1, kappa, L234A L235A)
chain 1: not shown
chain 2: QVQLQQSGPELVKPGASVKISCKASGYAFSRSWMNWVKQRPEKGLEWIGRIYPGNADIKYNANFKGKATLTADKSSSTAYMQLSSLTSEDSAVYFCAHIYYDFYYALDYWGQGTSVTVSSASTKGPSVFPLAPSSKSTSGGTAALGCLVKDYFPEPVTVSWNSGALTSGVHTFPAVLQSSGLYSLSSVVTVPSSSLGTQTYICNVNHKPSNTKVDKKVEPKSC
chain 3: not shown
notes: Chimeric ROR1 arm with CDR-H2 point mutations (AA); ROR1xCD3 FIT-Ig, no linkers
B15: FIT1007-12B-16 (bispecific antibody, human IgG1, kappa, L234A L235A)
chain 1: not shown
chain 2: B14 chain 2 with N55Q, A56G
chain 3: not shown
notes: Chimeric ROR1 arm with CDR-H2 point mutations (QA); ROR1xCD3 FIT-Ig, no linkers
B16: R12 x CD3 FIT-Ig (bispecific antibody, human IgG1, kappa, lambda, L234A L235A)
chain 1: not shown
chain 2: QEQLVESGGRLVTPGGSLTLSCKASGFDFSAYYMSWVRQAPGKGLEWIATIYPSSGKTYYATWVNGRFTISSDNAQNTVDLQMNSLTAADRATYFCARDSYADDGALFNIWGPGTLVTISSASTKGPSVFPLAPSSKSTSGGTAALGCLVKDYFPEPVTVSWNSGALTSGVHTFPAVLQSSGLYSLSSVVTVPSSSLGTQTYICNVNHKPSNTKVDKKVEPKSC
chain 3: not shown
B17: HuEM0006-01-24 (antibody, V domains shown)
VH: EVQLVQSGAEVKKPGASVKVSCKASGFSFTNYYVHWMRQAPGQGLEWMGWISPGSDNTKYNEKFKGRVTMTRDTSISTAYMELSRLRSDDTAVYYCARDDYGNYYFDYWGQGTTVTVSS
VL: DIVMTQSPDSLAVSLGERATINCKSSQSLLNARTRKNYLAWYQQKPGQPPKLLIYWASTRESGVPDRFSGSGSGTDFTLTISSLQAEDVAVYYCKQSYILRTFGGGTKVEIK
notes: only the variable domains are tied to it; also called HuEM1006-01-24
B18: HuEM0006-01-27 (antibody, V domains shown)
VH: B17 VH with M48I, M70L, R72A
VL: B17 VL
notes: only the variable domains are tied to it; also called HuEM1006-01-27
B19: ROR1-Tab2 (antibody, V domains shown)
VH: QVQLKESGPGLVAPSQTLSITCTVSGFSLTSYGVHWVRQPPGKGLEWLGVIWAGGFTNYNSALKSRLSISKDNSKSQVLLKMTSLQTDDTAMYYCARRGSSYSMDYWGQGTSVTVSS
VL: EIVLSQSPAITAASLGQKVTITCSASSNVSYIHWYQQRSGTSPRPWIYEISKLASGVPVRFSGSGSGTSYSLTISSMEAEDAAIYYCQQWNYPLITFGSGTKLEIQ
notes: also called clone D10; D10 as described in WO2012097313

Tests used:
human ROR1 on cells = molecular target: T1, human ROR1 on cells (human, UniProt Q01973 30-937); experiment: flow cytometry on MDA-MB-231 cells, MFI
T1 construct: whole, on cells; the cell line is named under assay; also called CHO-ROR1; CHOK1-ROR1

[1] = molecular target: T2, recombinant human ROR1-ECD protein (human, UniProt Q01973 30-406); experiment: BLI (Octet RED96), FIT-Ig captured on anti-hIgG Fc sensors, ROR1 ECD at 10 ug/ml; off-rate relative to FIT1007-12B
T2 construct: also called human ROR1 extracellular domain
Description: The ROR1/CD3 FIT-Ig proteins were assayed for and ranked by dissociation rate constant (koff, “off-rate”) using an Octet®RED96 biolayer interferometry (Pall FortéBio LLC). Anti-hIgG Fc Capture (AHC) Biosensors (Pall) were first exposed to antibody at a concentration of 100 nM for 30 seconds to capture antibody, then dipped into running buffer (1× pH 7.2 PBS, 0.05% Tween 20, 0.1% BSA) for 60 seconds to check baseline. Sensors with captured antibody were dipped into recombinant human ROR1 ECD protein at 10 ug/ml for 5 minutes to measure association, followed by dipped into running buffer for 1200 seconds to measure dissociation. The association and dissociation curves were fitted to a 1:1 Langmuir binding model using ForteBio Data Analysis software (Pall). The off-rate ratios were calculated by the off-rate of antibody to that of FIT1007-12B. Lower ratio indicates slower dissociation of the antibody in comparison with the parental chimeric antibody FIT1007-12B.

human CD3 on cells = molecular target: T3, human CD3 on cells (human, UniProt P07766 23-207; P04234 22-171; P09693 23-182; P20963 22-164); experiment: flow cytometry on CHO-CD3-TCR cells, MFI
T3 construct: the cell line is named under assay; also called human TCR/CD3 complex; CHO-CD3-TCR
Description: Briefly, 5×10⁵ cells were seeded into each well of a 96-well plate. Cells were centrifuged at 400 g for 5 minutes and supernatants were discarded. For each well, […] of serially diluted antibodies were then added and mixed with the cells. After 40 minutes of incubation at 4° C., plates were washed several times to remove excess antibodies. Secondary fluorochrome-conjugated goat anti-human IgG antibody was then added and incubated with cells at room temperature for 20 minutes. After another round of centrifugation and a washing step, cells were resuspended in FACS buffer for reading on a CytoFLEX Flow Cytometer (Beckman Coulter). Median Fluorescence Intensity (MFI) readouts were plotted against antibody concentration and analyzed with GraphPad Prism 6.0 software.

[2] = molecular target: T2, recombinant human ROR1-ECD protein; experiment: BLI (Octet RED96), antibody captured on anti-mouse IgG Fc sensors, ROR1-ECD in solution, 25 C, 1:1 fit
Description: Briefly, Anti-Mouse IgG Fc Capture (AMC) Biosensors were used to capture purified anti-ROR1 antibodies. Sensors were then dipped into solutions containing recombinant human ROR1-ECD protein to detect target protein binding to the captured antibodies. Kinetics constants were determined by processing and fitting data to a 1:1 binding model using Fortebio analysis software. Shown below in Table 2 are the results obtained for ROR1-mAb004 in comparison with two previously described anti-ROR1 monoclonal antibodies, ROR1-Tab1 is clone R12 as described in WO2014167022, and ROR1-Tab2 is clone D10 as described in WO2012097313.

[3] = molecular target: T2, recombinant human ROR1-ECD protein; experiment: competition ELISA: biotinylated ROR1-ECD pre-mixed with the row's antibody; competitor coated on the plate: ROR1-Tab2
Description: (§1) The binding epitope of ROR1 antibodies were identified with a competition ELISA. Briefly, 96 well plates were coated with 1 ug/mL purified antibodies and incubated overnight at 4° C. After washing with PBS containing 0.05% Tween 20, plates were blocked with blocking buffer (PBS containing 0.05% Tween 20 and 2% BSA) at 37° C. for 2 hours. Biotinylated human ROR1-ECD protein pre-mixed with ROR1 antibody (sample) or irrelevant mouse IgG (baseline) was added into plate wells and incubated at 37° C. for 1 hour before being washed 3 times. Streptavidin-HRP (1:5000 dilution) was then added into each well and incubated at 37° C. for 1 hour before being washed another 3 times. Tetramethylbenzidine (TMB) chromogenic solution was added for color development for 5 minutes then the reaction was stopped with 1M HCl. Absorbance at 450 nm (OD₄₅₀) was measured on a microplate reader. The OD450baseline represents the level of human ROR1-ECD binding to ROR1 antibodies at absence of competition, while the difference between OD450baseline and OD450ₛₐₘₚₗₑ reflects the competition between the ROR1 antibody coated on plate and the antibody in solution. The inhibition percentage was calculated by following equation: […]

[4] = molecular target: T2, recombinant human ROR1-ECD protein; experiment: competition ELISA: biotinylated ROR1-ECD pre-mixed with the row's antibody; competitor coated on the plate: ROR1-Tab1
Description: as §1

[5] = molecular target: T2, recombinant human ROR1-ECD protein; experiment: competition ELISA: biotinylated ROR1-ECD pre-mixed with the row's antibody; competitor coated on the plate: ROR1-mAb004
Description: as §1

T2 sequence (Q01973 30-406): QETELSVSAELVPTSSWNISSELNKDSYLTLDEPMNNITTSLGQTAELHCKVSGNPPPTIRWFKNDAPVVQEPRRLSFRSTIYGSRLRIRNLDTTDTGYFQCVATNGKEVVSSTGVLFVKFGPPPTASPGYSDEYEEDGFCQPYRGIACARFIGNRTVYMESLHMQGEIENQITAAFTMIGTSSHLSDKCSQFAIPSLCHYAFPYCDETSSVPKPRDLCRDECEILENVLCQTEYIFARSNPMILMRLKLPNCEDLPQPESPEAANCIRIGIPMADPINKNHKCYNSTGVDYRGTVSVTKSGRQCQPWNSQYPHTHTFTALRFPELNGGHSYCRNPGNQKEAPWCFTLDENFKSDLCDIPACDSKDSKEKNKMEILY
T1 sequence (Q01973 30-937): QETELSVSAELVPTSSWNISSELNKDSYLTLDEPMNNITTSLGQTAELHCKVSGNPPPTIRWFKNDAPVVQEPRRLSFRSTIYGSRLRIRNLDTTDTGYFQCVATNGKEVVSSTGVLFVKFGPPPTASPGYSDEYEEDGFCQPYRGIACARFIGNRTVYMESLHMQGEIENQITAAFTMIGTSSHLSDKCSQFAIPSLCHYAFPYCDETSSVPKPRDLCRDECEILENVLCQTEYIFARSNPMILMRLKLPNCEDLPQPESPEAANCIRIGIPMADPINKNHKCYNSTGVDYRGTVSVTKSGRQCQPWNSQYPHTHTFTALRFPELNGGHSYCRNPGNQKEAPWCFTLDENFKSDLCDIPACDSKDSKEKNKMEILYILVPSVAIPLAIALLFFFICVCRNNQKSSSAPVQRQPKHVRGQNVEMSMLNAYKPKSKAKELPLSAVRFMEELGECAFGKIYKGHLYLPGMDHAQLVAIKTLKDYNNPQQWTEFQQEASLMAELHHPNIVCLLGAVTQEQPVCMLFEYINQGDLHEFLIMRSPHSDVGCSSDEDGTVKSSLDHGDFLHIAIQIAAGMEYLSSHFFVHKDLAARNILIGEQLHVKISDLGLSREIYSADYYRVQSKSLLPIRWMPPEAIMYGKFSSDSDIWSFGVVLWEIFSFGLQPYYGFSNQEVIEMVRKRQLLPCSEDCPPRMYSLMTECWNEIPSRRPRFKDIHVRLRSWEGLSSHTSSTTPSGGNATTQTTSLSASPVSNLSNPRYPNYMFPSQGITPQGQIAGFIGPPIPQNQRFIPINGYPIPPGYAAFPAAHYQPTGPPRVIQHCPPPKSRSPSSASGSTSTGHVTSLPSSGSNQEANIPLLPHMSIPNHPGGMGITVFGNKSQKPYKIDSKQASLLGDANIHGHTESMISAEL
T3 sequence (P07766 23-207 limits assumed, chain 1 of 4): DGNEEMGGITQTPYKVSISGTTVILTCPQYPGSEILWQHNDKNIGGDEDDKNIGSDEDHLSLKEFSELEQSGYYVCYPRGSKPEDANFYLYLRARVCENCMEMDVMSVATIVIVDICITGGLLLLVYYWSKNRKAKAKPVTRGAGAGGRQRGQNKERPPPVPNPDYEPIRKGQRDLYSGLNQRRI
T3 sequence (P04234 22-171 limits assumed, chain 2 of 4): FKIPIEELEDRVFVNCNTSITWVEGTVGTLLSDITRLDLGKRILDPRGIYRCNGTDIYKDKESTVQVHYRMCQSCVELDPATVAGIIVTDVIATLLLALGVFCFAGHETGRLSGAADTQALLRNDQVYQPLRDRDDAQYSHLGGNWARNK
T3 sequence (P09693 23-182 limits assumed, chain 3 of 4): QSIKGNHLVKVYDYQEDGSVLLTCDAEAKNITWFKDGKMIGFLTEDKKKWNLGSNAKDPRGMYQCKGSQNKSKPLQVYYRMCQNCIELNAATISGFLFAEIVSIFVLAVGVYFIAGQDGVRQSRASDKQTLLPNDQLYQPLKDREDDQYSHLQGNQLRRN
T3 sequence (P20963 22-164 limits assumed, chain 4 of 4): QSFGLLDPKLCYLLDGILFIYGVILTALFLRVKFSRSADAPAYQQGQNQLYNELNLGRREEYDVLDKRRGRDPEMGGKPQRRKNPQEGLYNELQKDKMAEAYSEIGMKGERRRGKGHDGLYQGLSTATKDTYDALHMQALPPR

| Binder | Off-rate Ratio [1] [%] | other results |
| --- | --- | --- |
| B1 |  | EC50 (read off the curve) (human ROR1 on cells): ~0.5 nM |
| B2 | 28.5 |  |
| B3 | 35.9 |  |
| B4 | 25.8 |  |
| B5 | 25.2 |  |
| B6 | 13.6 |  |
| B7 | 7.87 |  |
| B8 | 5.25 |  |
| B9 | 12 |  |
| B10 | 36.7 |  |
| B11 | 15.4 |  |
| B12 | 28.9 |  |
| B13 | 11.9 |  |
| B14 | 89.1 |  |
| B15 | 139 |  |
| B16 |  | EC50 (read off the curve) (human ROR1 on cells): ~0.4 nM |
| B17 |  | EC50 (read off the curve) (human CD3 on cells): ~0.3 nM |
| B18 |  | EC50 (read off the curve) (human CD3 on cells): ~2 nM |
| B19 |  | Kd [2]: 98.8 nM; koff [2]: 0.0321 s⁻¹; kon [2]: 325000 M⁻¹ s⁻¹; Inhibition % [3]: 92%; Inhibition % [4]: -21%; Inhibition % [5]: 56% |
